Data taken from patent publication US20080020978A1 (Amgen, published 2008).
Square brackets hold non-standard residues; d marks the D form. 1Nal = N[C@@H](Cc1cccc2ccccc12)C(=O)O; Tic = O=C(O)[C@@H]1Cc2ccccc2CN1; Cit = NC(=O)NCCC[C@H](N)C(=O)O

Molecular target: CGRP1 receptor (CRLR/RAMP1 complex) of human neuroblastoma SK-N-MC cells (human, UniProt Q16602 23-461; O60894 27-148)
Test: cell-based or functional assay

CGRP1 receptor (CRLR/RAMP1 complex) of human neuroblastoma SK-N-MC cells, sequence (Q16602 23-461, chain 1 of 2): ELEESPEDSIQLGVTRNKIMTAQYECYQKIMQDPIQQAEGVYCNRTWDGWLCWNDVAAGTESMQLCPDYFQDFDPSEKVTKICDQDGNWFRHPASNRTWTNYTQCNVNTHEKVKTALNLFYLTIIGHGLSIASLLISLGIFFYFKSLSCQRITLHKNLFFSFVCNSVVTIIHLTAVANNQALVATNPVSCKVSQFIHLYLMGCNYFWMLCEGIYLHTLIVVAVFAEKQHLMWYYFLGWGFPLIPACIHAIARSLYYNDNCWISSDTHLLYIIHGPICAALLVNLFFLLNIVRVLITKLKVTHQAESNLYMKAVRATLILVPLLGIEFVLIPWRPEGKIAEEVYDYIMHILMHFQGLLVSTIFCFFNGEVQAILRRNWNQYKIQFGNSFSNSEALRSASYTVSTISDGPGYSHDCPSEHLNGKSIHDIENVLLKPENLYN
CGRP1 receptor (CRLR/RAMP1 complex) of human neuroblastoma SK-N-MC cells, sequence (O60894 27-148, chain 2 of 2): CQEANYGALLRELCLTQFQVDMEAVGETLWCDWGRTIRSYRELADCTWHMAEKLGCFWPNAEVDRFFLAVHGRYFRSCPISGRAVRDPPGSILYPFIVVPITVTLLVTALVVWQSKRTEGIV

Peptide IC50 [nM]	PEG-peptide IC50 [nM]	Binder
0.53		Ac-WVTHQLAGLLSQSGGVVRKNFVPTDVGPFAF-NH2 [SEQ ID NO 857]
	565	Ac-WVTH[Cit]LAGLASRPGGVVRKNFVPTDVGPFAF-NH2 (also: PEG-conjugated, in most cases at Lys25) [PEG-peptide of SEQ ID NO 869]
6.19		Ac-WVTH[Cit]LAGLASRPGGVVRKNFVPTDVGPFAF-NH2 (SMILES CC(=O)N[C@@H](Cc1c[nH]c2ccccc12)C(=O)N[C@H](C(=O)N[C@H](C(=O)N[C@@H](Cc1c[nH]cn1)C(=O)N[C@@H](CCCNC(N)=O)C(=O)N[C@@H](CC(C)C)C(=O)N[C@@H](C)C(=O)NCC(=O)N[C@@H](CC(C)C)C(=O)N[C@@H](C)C(=O)N[C@@H](CO)C(=O)N[C@@H](CCCNC(=N)N)C(=O)N1CCC[C@H]1C(=O)NCC(=O)NCC(=O)N[C@H](C(=O)N[C@H](C(=O)N[C@@H](CCCNC(=N)N)C(=O)N[C@@H](CCCCN)C(=O)N[C@@H](CC(N)=O)C(=O)N[C@@H](Cc1ccccc1)C(=O)N[C@H](C(=O)N1CCC[C@H]1C(=O)N[C@H](C(=O)N[C@@H](CC(=O)O)C(=O)N[C@H](C(=O)NCC(=O)N1CCC[C@H]1C(=O)N[C@@H](Cc1ccccc1)C(=O)N[C@@H](C)C(=O)N[C@@H](Cc1ccccc1)C(N)=O)C(C)C)[C@@H](C)O)C(C)C)C(C)C)C(C)C)[C@@H](C)O)C(C)C) [SEQ ID NO 869]
0.57		WVTHXLAGLLSRSGGVVRKNFVPTDVGPFAF (Ac-WVTH[Cit]LAGLLSRSGGVVRKNFVPTDVGPFAF-NH2) [SEQ ID NO 861]
	0.37	WVTHXLAGLLSXSGGVVRKNFVPTDVGPFAF (Ac-WVTH[hArg]LAGLLS[hArg]SGGVVRKNFVPTDVGPFAF-NH2; PEG-conjugated (Table 2C: in most cases at Lys^25)) [PEG-peptide of SEQ ID NO 866]
	0.33	WVTHRLAGLLSXSGGVVRKNFVPTDVGPFAF (Ac-WVTHRLAGLLS[hArg]SGGVVRKNFVPTDVGPFAF-NH2; PEG-conjugated (Table 2C: in most cases at Lys^25)) [PEG-peptide of SEQ ID NO 864]
0.57		WVTHRLAGLLSXSGGVVRKNFVPTDVGPFAF (Ac-WVTHRLAGLLS[hArg]SGGVVRKNFVPTDVGPFAF-NH2) [SEQ ID NO 864]
	0.36	WVTHXLAGLLSRSGGVVRKNFVPTDVGPFAF (Ac-WVTH[hArg]LAGLLSRSGGVVRKNFVPTDVGPFAF-NH2; PEG-conjugated (Table 2C: in most cases at Lys^25)) [PEG-peptide of SEQ ID NO 865]
	2.08	WVTHXLAGLLSRSGGVVRKNFVPTDVGPFAF (Ac-WVTH[Cit]LAGLLSRSGGVVRKNFVPTDVGPFAF-NH2; PEG-conjugated (Table 2C: in most cases at Lys^25)) [PEG-peptide of SEQ ID NO 861]
	0.96	WVTHRLAGLLSXSGGVVRKNFVPTDVGPFAF (Ac-WVTHRLAGLLS[Cit]SGGVVRKNFVPTDVGPFAF-NH2; PEG-conjugated (Table 2C: in most cases at Lys^25)) [PEG-peptide of SEQ ID NO 862]
0.58		WVTHRLAGLLSXSGGVVRKNFVPTDVGPFAF (Ac-WVTHRLAGLLS[Cit]SGGVVRKNFVPTDVGPFAF-NH2) [SEQ ID NO 862]
2.1		WVTHXLAGLLSXSGGVVRKNFVPTDVGPFAF (Ac-WVTH[hArg]LAGLLS[hArg]SGGVVRKNFVPTDVGPFAF-NH2) [SEQ ID NO 866]
0.44		WVTHXLAGLLSRSGGVVRKNFVPTDVGPFAF (Ac-WVTH[hArg]LAGLLSRSGGVVRKNFVPTDVGPFAF-NH2) [SEQ ID NO 865]
16.1		Ac-WVTH[Cit]LAGLAS[Cit]SGGVVRKNFVPTDVGPFAF-NH2 [SEQ ID NO 870]
1.41		Ac-WVTHRLAGLASRPGGVVRKNFVPTDVGPFAF-NH2 [SEQ ID NO 859]
0.47		Ac-WVTHRLAGLLSQSGGVVRKNFVPTDVGPFAF-NH2 [SEQ ID NO 856]
	> 1000	Ac-WVTH[Cit]LAGLAS[Cit]SGGVVRKNFVPTDVGPFAF-NH2 (also: PEG-conjugated, in most cases at Lys25) [PEG-peptide of SEQ ID NO 870]
4.32		Ac-WVTH[Cit]LAGLLS[Cit]SGGVVRKNFVPTDVG[Tic]FAF-NH2 [SEQ ID NO 957]
	60.5	Ac-WVTHRLAGLASRPGGVVRKNFVPTDVGPFAF-NH2 (also: PEG-conjugated, in most cases at Lys25) [PEG-peptide of SEQ ID NO 859]
2.34		WVTHXLAGLLSXSGGVVXKNXVXTDVGPXAF (Ac-WVTH[Cit]LAGLLS[Cit]SGGVV[hArg]KN[pI-Phe]V[Oic]TDVGP[pI-Phe]AF-NH2) [SEQ ID NO 952]

Peptide IC50 [nM]	PEG-peptide IC50 [nM]	Binder
10.1		WVTHXLAGLLSXSGGVVRKNFVPTDVGPXAF (Ac-WVTH[Cit]LAGLLS[Cit]SGGVVRKNFVPTDVGP[Tic]AF-NH2) [SEQ ID NO 962]
2.24		WVTHXLAGLLSXSGGVVXKNFVPTDVGPXAF (Ac-WVTH[Cit]LAGLLS[Cit]SGGVV[hArg]KNFVPTDVGP[1-Nal]AF-NH2) [SEQ ID NO 960]
3.02		Ac-WVTH[Cit]LAGLLS[Cit]SGGVVRKNFVPTDVG[Tic]FAF-NH2 [SEQ ID NO 956]
3		Ac-WVTH[Cit]LAGLLSRPGGVVRKNFVPTDVGPFAF-NH2 (SMILES CC(=O)N[C@@H](Cc1c[nH]c2ccccc12)C(=O)N[C@H](C(=O)N[C@H](C(=O)N[C@@H](Cc1c[nH]cn1)C(=O)N[C@@H](CCCNC(N)=O)C(=O)N[C@@H](CC(C)C)C(=O)N[C@@H](C)C(=O)NCC(=O)N[C@@H](CC(C)C)C(=O)N[C@@H](CC(C)C)C(=O)N[C@@H](CO)C(=O)N[C@@H](CCCNC(=N)N)C(=O)N1CCC[C@H]1C(=O)NCC(=O)NCC(=O)N[C@H](C(=O)N[C@H](C(=O)N[C@@H](CCCNC(=N)N)C(=O)N[C@@H](CCCCN)C(=O)N[C@@H](CC(N)=O)C(=O)N[C@@H](Cc1ccccc1)C(=O)N[C@H](C(=O)N1CCC[C@H]1C(=O)N[C@H](C(=O)N[C@@H](CC(=O)O)C(=O)N[C@H](C(=O)NCC(=O)N1CCC[C@H]1C(=O)N[C@@H](Cc1ccccc1)C(=O)N[C@@H](C)C(=O)N[C@@H](Cc1ccccc1)C(N)=O)C(C)C)[C@@H](C)O)C(C)C)C(C)C)C(C)C)[C@@H](C)O)C(C)C) [SEQ ID NO 868]
1.42		Ac-WVTHRLAGLLSRPGGVVRKNFVPTDVGPFAF-NH2 [SEQ ID NO 860]
1.6		Ac-[1Nal]VTH[Cit]LAGLLS[Cit]SGGVVRKNFVPTDVGPFAF-NH2 (SMILES CC(=O)N[C@@H](Cc1cccc2ccccc12)C(=O)N[C@H](C(=O)N[C@H](C(=O)N[C@@H](Cc1c[nH]cn1)C(=O)N[C@@H](CCCNC(N)=O)C(=O)N[C@@H](CC(C)C)C(=O)N[C@@H](C)C(=O)NCC(=O)N[C@@H](CC(C)C)C(=O)N[C@@H](CC(C)C)C(=O)N[C@@H](CO)C(=O)N[C@@H](CCCNC(N)=O)C(=O)N[C@@H](CO)C(=O)NCC(=O)NCC(=O)N[C@H](C(=O)N[C@H](C(=O)N[C@@H](CCCNC(=N)N)C(=O)N[C@@H](CCCCN)C(=O)N[C@@H](CC(N)=O)C(=O)N[C@@H](Cc1ccccc1)C(=O)N[C@H](C(=O)N1CCC[C@H]1C(=O)N[C@H](C(=O)N[C@@H](CC(=O)O)C(=O)N[C@H](C(=O)NCC(=O)N1CCC[C@H]1C(=O)N[C@@H](Cc1ccccc1)C(=O)N[C@@H](C)C(=O)N[C@@H](Cc1ccccc1)C(N)=O)C(C)C)[C@@H](C)O)C(C)C)C(C)C)C(C)C)[C@@H](C)O)C(C)C) [SEQ ID NO 872]
	108	Ac-WVTH[Cit]LAGLLSRPGGVVRKNFVPTDVGPFAF-NH2 (also: PEG-conjugated, in most cases at Lys25) [PEG-peptide of SEQ ID NO 868]
	6.21	Ac-WVTHQLAGLLSQSGGVVRKNFVPTDVGPFAF-NH2 (also: PEG-conjugated, in most cases at Lys25) [PEG-peptide of SEQ ID NO 857]
1.3		Ac-WVTHRLAGLLPRSGGVVRKNFVPTDVGPFAF-NH2 [SEQ ID NO 858]
	5	Ac-WVTHRLAGLLPRSGGVVRKNFVPTDVGPFAF-NH2 (also: PEG-conjugated, in most cases at Lys25) [PEG-peptide of SEQ ID NO 858]
	16.7	Ac-WVTHRLAGLLSRPGGVVRKNFVPTDVGPFAF-NH2 (also: PEG-conjugated, in most cases at Lys25) [PEG-peptide of SEQ ID NO 860]
2.57		WVTHXLAGLLSXSGGVVXKNFVXTDVGXFAX (Ac-WVTH[Cit]LAGLLS[Cit]SGGVV[hArg]KNFV[Oic]TDVG[Oic]FA[2-Nal]-NH2) [SEQ ID NO 948]
3.22		WVTHXLAGLLSXSGGVVXKNFVXTDVGPFAX (Ac-WVTH[Cit]LAGLLS[Cit]SGGVV[hArg]KNFV[Oic]TDVGPFA[2-Nal]-NH2) [SEQ ID NO 951]
3.57		WVTHXLAGLLSXSGGVVXKNXVXTDVGXFAX (Ac-WVTH[Cit]LAGLLS[Cit]SGGVV[hArg]KN[2-Nal]V[Oic]TDVG[Oic]FA[2-Nal]-NH2) [SEQ ID NO 955]
	3.22	WVTHXLAGLLSXSGGVVXKNFVPTDVGPFAF (Ac-WVTH[Cit]LAGLLS[Cit]SGGVV[hArg]KNFVPTDVGPFAF-NH2; PEG-conjugated (Table 2C: in most cases at Lys^25)) [PEG-peptide of SEQ ID NO 871]
2.73		WVTHXLAGLLSXSGGVVXKNFVXTDVGPXAX (Ac-WVTH[Cit]LAGLLS[Cit]SGGVV[hArg]KNFV[Oic]TDVGP[1-Nal]A[2-Nal]-NH2) [SEQ ID NO 949]
3.45		WVTHXLAGLLSXSGGVVXKNXVPTDVGXFAX (Ac-WVTH[Cit]LAGLLS[Cit]SGGVV[hArg]KN[2-Nal]VPTDVG[Oic]FA[2-Nal]-NH2) [SEQ ID NO 954]
3.85		WVTHXLAGLLSXSGGVVXKNFVXTDVGPXAF (Ac-WVTH[Cit]LAGLLS[Cit]SGGVV[hArg]KNFV[Oic]TDVGP[Bip]AF-NH2) [SEQ ID NO 950]
0.41		WVTHXLAGLLSXSGGVVXKNFVPTDVGPFAF (Ac-WVTH[Cit]LAGLLS[Cit]SGGVV[hArg]KNFVPTDVGPFAF-NH2) [SEQ ID NO 871]
	0.46	Ac-WVTHRLAGLLSQSGGVVRKNFVPTDVGPFAF-NH2 (also: PEG-conjugated, in most cases at Lys25) [PEG-peptide of SEQ ID NO 856]
